# Experimental data as given in patent US20230151068A1.
# Target: biotinylated His-Avi-TEAD (194-411) (UniProt P28347)
# Test: SSM screen, enrichment after two rounds of sorting
row,Binder,enrichment score
1,GSPDEYIERAKECCHKGDIQCCLRYFEESGDPNVMLICLFCP (designed binder) [K13H variant of SEQ ID NO: 1],-0.44
2,GSPDEYIERAKECCKMGDIQCCLRYFEESGDPNVMLICLFCP (designed binder) [K14M variant of SEQ ID NO: 1],-0.92
3,GSPDEYIERAKECCKRGDIQCCLRYFEESGDPNVMLICLFCP (designed binder) [K14R variant of SEQ ID NO: 1],-1.06
4,GSPDEYIERAKECCKSGDIQCCLRYFEESGDPNVMLICLFCP (designed binder) [K14S variant of SEQ ID NO: 1],1.61
5,GSPDEYIERAKECCKKNDIQCCLRYFEESGDPNVMLICLFCP (designed binder) [G15N variant of SEQ ID NO: 1],3.06
6,GSPDEYIERAKECCKHGDIQCCLRYFEESGDPNVMLICLFCP (designed binder) [K14H variant of SEQ ID NO: 1],0.53
7,GSPDEYIERAKECCTKGDIQCCLRYFEESGDPNVMLICLFCP (designed binder) [K13T variant of SEQ ID NO: 1],1.49
8,GSPDEYIERAKECCRKGDIQCCLRYFEESGDPNVMLICLFCP (designed binder) [K13R variant of SEQ ID NO: 1],-0.81
9,GSPDEYIERAKECCKQGDIQCCLRYFEESGDPNVMLICLFCP (designed binder) [K14Q variant of SEQ ID NO: 1],0.17
10,GSPDEYIERAKECCMKGDIQCCLRYFEESGDPNVMLICLFCP (designed binder) [K13M variant of SEQ ID NO: 1],-0.4
11,GSPDEYIERAKECCQKGDIQCCLRYFEESGDPNVMLICLFCP (designed binder) [K13Q variant of SEQ ID NO: 1],2.23
12,GSPDEYIERAKECCNKGDIQCCLRYFEESGDPNVMLICLFCP (designed binder) [K13N variant of SEQ ID NO: 1],0.6
13,GSPDEYIERAKECCKKHDIQCCLRYFEESGDPNVMLICLFCP (designed binder) [G15H variant of SEQ ID NO: 1],3.18
14,GSPDEYIERAKECCKNGDIQCCLRYFEESGDPNVMLICLFCP (designed binder) [K14N variant of SEQ ID NO: 1],1.51
15,GSPDEYIERAKECCKKKDIQCCLRYFEESGDPNVMLICLFCP (designed binder) [G15K variant of SEQ ID NO: 1],4.43
16,GSPDEYIERAKECCSKGDIQCCLRYFEESGDPNVMLICLFCP (designed binder) [K13S variant of SEQ ID NO: 1],1.43
17,GSPDEYIERAKECCKKMDIQCCLRYFEESGDPNVMLICLFCP (designed binder) [G15M variant of SEQ ID NO: 1],1.64

# Results, then the binder that gave them:
row,enrichment score,Binder
1,-5.59,GSPDEYIERAKECCKKGRIQCCLRYFEESGDPNVMLICLFCP (designed binder) [D16R variant of SEQ ID NO: 1]
2,-3.1,GSPDEYIERAKECCKKGDQQCCLRYFEESGDPNVMLICLFCP (designed binder) [I17Q variant of SEQ ID NO: 1]
3,2.37,GSPDEYIERAKECCKKSDIQCCLRYFEESGDPNVMLICLFCP (designed binder) [G15S variant of SEQ ID NO: 1]
4,-2.71,GSPDEYIERAKECCKKGSIQCCLRYFEESGDPNVMLICLFCP (designed binder) [D16S variant of SEQ ID NO: 1]
5,-4.55,GSPDEYIERAKECCKKGHIQCCLRYFEESGDPNVMLICLFCP (designed binder) [D16H variant of SEQ ID NO: 1]
6,-4.12,GSPDEYIERAKECCKKGMIQCCLRYFEESGDPNVMLICLFCP (designed binder) [D16M variant of SEQ ID NO: 1]
7,-2.7,GSPDEYIERAKECCKKGNIQCCLRYFEESGDPNVMLICLFCP (designed binder) [D16N variant of SEQ ID NO: 1]
8,0.91,GSPDEYIERAKECCKKRDIQCCLRYFEESGDPNVMLICLFCP (designed binder) [G15R variant of SEQ ID NO: 1]
9,0.46,GSPDEYIERAKECCKKGDRQCCLRYFEESGDPNVMLICLFCP (designed binder) [I17R variant of SEQ ID NO: 1]
10,0.47,GSPDEYIERAKECCKKGDNQCCLRYFEESGDPNVMLICLFCP (designed binder) [I17N variant of SEQ ID NO: 1]
11,-2.1,GSPDEYIERAKECCKKGDSQCCLRYFEESGDPNVMLICLFCP (designed binder) [I17S variant of SEQ ID NO: 1]
12,-9.52,GSPDEYIERAKECCKKGDIMCCLRYFEESGDPNVMLICLFCP (designed binder) [Q18M variant of SEQ ID NO: 1]
13,-4.39,GSPDEYIERAKECCKKGDIHCCLRYFEESGDPNVMLICLFCP (designed binder) [Q18H variant of SEQ ID NO: 1]
14,-2.95,GSPDEYIERAKECCKKGDMQCCLRYFEESGDPNVMLICLFCP (designed binder) [I17M variant of SEQ ID NO: 1]
15,2.5,GSPDEYIERAKECCKKQDIQCCLRYFEESGDPNVMLICLFCP (designed binder) [G15Q variant of SEQ ID NO: 1]
16,-3.67,GSPDEYIERAKECCKKGDIRCCLRYFEESGDPNVMLICLFCP (designed binder) [Q18R variant of SEQ ID NO: 1]
17,-0.16,GSPDEYIERAKECCKKGDINCCLRYFEESGDPNVMLICLFCP (designed binder) [Q18N variant of SEQ ID NO: 1]
18,-1.54,GSPDEYIERAKECCKKGDIKCCLRYFEESGDPNVMLICLFCP (designed binder) [Q18K variant of SEQ ID NO: 1]
19,-4.53,GSPDEYIERAKECCKKGDKQCCLRYFEESGDPNVMLICLFCP (designed binder) [I17K variant of SEQ ID NO: 1]
20,-3.47,GSPDEYIERAKECCKKGQIQCCLRYFEESGDPNVMLICLFCP (designed binder) [D16Q variant of SEQ ID NO: 1]
21,-1.25,GSPDEYIERAKECCKKGDISCCLRYFEESGDPNVMLICLFCP (designed binder) [Q18S variant of SEQ ID NO: 1]
22,-3.33,GSPDEYIERAKECCKKGDHQCCLRYFEESGDPNVMLICLFCP (designed binder) [I17H variant of SEQ ID NO: 1]
23,-6.95,GSPDEYIERAKECCKKGKIQCCLRYFEESGDPNVMLICLFCP (designed binder) [D16K variant of SEQ ID NO: 1]
